Here are results for 3 molecules from PMC3037847 (Nature, 2010).

B1: S. cerevisiae His6-Cdh1 (natural protein)
chain: MSTNLNPFMNNTPSSSPLKGSESKRVSKRPISSSSSASLLSSPSRRSRPSTVYGDRYIPSRTDIDFNSIVSISSMASVPALNPSSTEDQVEYQKERQAHETYNTLLKNELFGEMLSKDTVGSESSIDRIKNTRPSTRGNVHAENTTRHGYELERVSTPPPEAAGLEEFSPHSTPVTPRRLFTSQQDEITRPSSNSVRGASLLTYQQRKGRRLSAASLLQSQFFDSMSPVRPDSKQLLLSPGKQFRQIAKVPYRVLDAPSLADDFYYSLIDWSSTDVLAVALGKSIFLTDNNTGDVVHLCDTENEYTSLSWIGAGSHLAVGQANGLVEIYDVMKRKCIRTLSGHIDRVACLSWNNHVLTSGSRDHRILHRDVRMPDPFFETIESHTQEVCGLKWNVADNKLASGGNDNVVHVYEGTSKSPILTFDEHKAAVKAMAWSPHKRGVLATGGGTADRRLKIWNVNTSIKMSDIDSGSQICNMVWSKNTNELVTSHGYSKYNLTLWDCNSMDPIAILKGHSFRVLHLTLSNDGTTVVSGAGDETLRYWKLFDKPKAKVQPNSLIFDAFNQIR
B2: Apc3/Cdc27, TPR subunit in the S. cerevisiae APC/C (natural protein)
chain: MAVNPELAPFTLSRGIPSFDDQALSTIIQLQDCIQQAIQQLNYSTAEFLAELLYAECSILDKSSVYWSDAVYLYALSLFLNKSYHTAFQISKEFKEYHLGIAYIFGRCALQLSQGVNEAILTLLSIINVFSSNSSNTRINMVLNSNLVHIPDLATLNCLLGNLYMKLDHSKEGAFYHSEALAINPYLWESYEAICKMRATVDLKRVFFDIAGKKSNSHNNNAASSFPSTSLSHFEPRSQPSLYSKTNKNGNNNINNNVNTLFQSSNSPPSTSASSFSSIQHFSRSQQQQANTSIRTCQNKNTQTPKNPAINSKTSSALPNNISMNLVSPSSKQPTISSLAKVYNRNKLLTTPPSKLLNNDRNHQNNNNNNNNNNNNNNNNNNNNNNNNIINKTTFKTPRNLYSSTGRLTTSKKNPRSLIISNSILTSDYSITLPEIMYNFALILRSSSQYNSFKAIRLFESQIPSHIKDTMPWCLVQLGKLHFEIINYDMSLKYFNRLKDLQPARVKDMEIFSTLLWHLHDKVKSSNLANGLMDTMPNKPETWCCIGNLLSLQKDHDAAIKAFEKATQLDPNFAYAYTLQGHEHSSNDSSDSAKTCYRKALACDPQHYNAYYGLGTSAMKLGQYEEALLYFEKARSINPVNVVLICCCGGSLEKLGYKEKALQYYELACHLQPTSSLSKYKMGQLLYSMTRYNVALQTFEELVKLVPDDATAHYLLGQTYRIVGRKKDAIKELTVAMNLDPKGNQVIIDELQKCHMQE

No end group written: not given here.

In data set [1] the target is APC/C in complex with Cdh1 (APC/C^Cdh1), budding yeast (S. cerevisiae) (UniProt P53886).
The target in the data set “S. cerevisiae His6-Cdh1” is B1. The experiment in a line: cryo-EM structure.
The target of data set [2] is T1, Apc2, cullin subunit in the S. cerevisiae APC/C (S. cerevisiae, UniProt Q12440 1-853).
T1 sequence: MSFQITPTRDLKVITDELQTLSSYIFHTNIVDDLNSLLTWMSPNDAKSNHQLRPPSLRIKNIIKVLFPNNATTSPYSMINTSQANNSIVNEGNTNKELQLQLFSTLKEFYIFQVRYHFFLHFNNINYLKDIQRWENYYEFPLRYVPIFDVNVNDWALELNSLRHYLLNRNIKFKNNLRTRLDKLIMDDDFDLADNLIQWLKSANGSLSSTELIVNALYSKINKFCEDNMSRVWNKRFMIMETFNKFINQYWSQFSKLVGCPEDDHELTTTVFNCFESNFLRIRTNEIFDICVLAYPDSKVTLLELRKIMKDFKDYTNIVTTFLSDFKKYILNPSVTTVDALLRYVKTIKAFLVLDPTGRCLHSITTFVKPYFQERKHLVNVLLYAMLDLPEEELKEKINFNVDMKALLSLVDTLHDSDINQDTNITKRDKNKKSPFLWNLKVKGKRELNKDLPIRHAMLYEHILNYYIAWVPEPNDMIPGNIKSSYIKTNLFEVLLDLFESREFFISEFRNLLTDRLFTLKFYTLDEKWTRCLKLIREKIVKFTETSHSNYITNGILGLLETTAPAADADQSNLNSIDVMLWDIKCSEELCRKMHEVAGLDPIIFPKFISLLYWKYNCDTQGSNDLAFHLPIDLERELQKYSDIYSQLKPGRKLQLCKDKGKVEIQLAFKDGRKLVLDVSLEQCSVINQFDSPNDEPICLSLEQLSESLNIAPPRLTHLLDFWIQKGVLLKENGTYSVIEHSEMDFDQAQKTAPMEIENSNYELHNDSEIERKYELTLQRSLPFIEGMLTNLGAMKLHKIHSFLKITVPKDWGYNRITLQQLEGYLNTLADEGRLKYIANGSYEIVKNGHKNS
The experiment in a line: cryo-EM structure.

Data set [3] has as its target B2. The experiment in a line: cryo-EM structure.
The data set “cryo-EM structure” concerns the molecule itself. The experiment in a line: cryo-EM structure.

The molecule NVPKKRHALDDVSNFHNK (not fully specified) [18-residue D-box peptide modelled on cyclin B (S. pombe Cdc13)] gave an inhibition of APC/C^Cdh1 ubiquitylation of Clb2 by the peptide in data set [1] of 0.1 mM. The binding result with S. cerevisiae His6-Cdh1 is on record as “binds”.
Take B1: the binding result in data set [2] and in data set [3] was “binds” in each case.
In the case of B2, the binding result in “cryo-EM structure” is on record as “binds”.
